Experiment [1] addresses T1, murine LRIG1.ECD.His recombinant protein (mouse, UniProt P70193 35-796).
T1 sequence (looked up): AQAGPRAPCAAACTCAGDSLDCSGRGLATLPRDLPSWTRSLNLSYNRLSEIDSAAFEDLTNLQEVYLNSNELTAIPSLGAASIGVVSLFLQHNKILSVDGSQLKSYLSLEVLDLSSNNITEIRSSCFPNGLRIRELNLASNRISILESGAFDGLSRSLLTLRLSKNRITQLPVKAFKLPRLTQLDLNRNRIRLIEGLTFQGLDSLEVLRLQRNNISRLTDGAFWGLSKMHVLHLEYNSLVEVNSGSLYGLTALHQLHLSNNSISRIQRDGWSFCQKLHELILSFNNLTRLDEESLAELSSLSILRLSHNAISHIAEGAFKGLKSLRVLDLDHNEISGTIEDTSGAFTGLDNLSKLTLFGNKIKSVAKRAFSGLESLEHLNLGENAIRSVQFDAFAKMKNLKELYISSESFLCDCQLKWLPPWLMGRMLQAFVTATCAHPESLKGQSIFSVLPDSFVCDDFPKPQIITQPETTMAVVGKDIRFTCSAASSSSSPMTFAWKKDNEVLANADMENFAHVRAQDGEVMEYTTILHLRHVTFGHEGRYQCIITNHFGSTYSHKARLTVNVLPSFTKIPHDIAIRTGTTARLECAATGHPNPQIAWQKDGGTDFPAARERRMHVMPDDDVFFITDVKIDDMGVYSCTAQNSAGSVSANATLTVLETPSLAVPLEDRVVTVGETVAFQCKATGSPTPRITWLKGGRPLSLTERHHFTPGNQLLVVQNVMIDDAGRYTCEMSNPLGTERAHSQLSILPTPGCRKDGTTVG
In words: SPR. (In general: SPR reads the build-up and loss of mass on a sensor chip optically.)

Experiment [2] deals with T1, murine LRIG1.ECD.His recombinant protein. Briefly: SPR. The source holds these as a separate data set.

Where two headings read alike, the source gives them in different places.

B1: murine VISTA.Fc recombinant protein (VISTA.ECD) (Fc fusion, UniProt Q9D659 33-191, looked up)
chain: FKVTTPYSLYVCPEGQNATLTCRILGPVSKGHDVTIYKTWYLSSRGEVQMCKEHRPIRNFTLQHLQHHGSHLKANASHDQPQKHGLELASDHHGNFSITLRNVTPRDSGLYCCLVIELKNHHPEQRFYGSMELQVQAGKGSGSTCMASNEQDSDSITAA
On to B1, for which the figures for the dissociation constant (Kd) in experiment [1] and in experiment [2] were 1.2 nM and 3.44 nM, respectively.

By Kd is commonly meant the equilibrium constant for the complex coming apart.

(Values after paper PMC11334715 (Science immunology, 2024).)
